Results: article PMC10790780

Key:
[1] = tested on: Rho-His6 (transcription termination factor Rho) (Acinetobacter baumannii AB5075); test: EMSA; settings: LightShift chemiluminescent RNA EMSA kit components, 20 uL, 1 h at room temperature; 5% acrylamide TBE gel, 0.5x TBE, 100 V 120 min at 4 C; salt and pH not …
[2] = biological target: T1, Rho-His6 (transcription termination factor Rho) (Acinetobacter baumannii AB5075) (UniProt A0ABX6CC36); test: competition
[3] = biological target: T1, Rho-His6 (transcription termination factor Rho) (Acinetobacter baumannii AB5075); test: EMSA

| Substance | Kd [1] | further results |
| --- | --- | --- |
| ABUW_1645 mRNA leader | 20 nM |  |
| ABUW_1959 mRNA leader | 29 nM |  |
| GGGCUUUGCCUGCUAGCCACAUUGCUAGCGGGUUUUAGCAGACCCUAUUUAAACAAAGACGAUAGACAGAACCUAGUUUUGUGUGUCGUGAACUCGUUCGCCCCCUUUUUCUCUAUGGUAGGGCGGAAGGGGGACACCUUCGGGUGUGCUGGUUUCUUUGUUUUCCAGUCUGCUAACCCUCUUUCGUCCUGCCAGUACUGAUC [ABUW_1645 mRNA leader, unlabeled competitor] |  | binding [2]: binds |
| GGGCUUUGCCUGCUAGCCACAUUGCUAGCGGGUUUUAGCAGACCCUAUUUAAACAAAGACGAUAGACAGAACCUAGUUUUGUGUGUCGUGAACUCGUUCGCCCCCUUUUUCUCUAUGGUAGGGCGGAAGGGGGACACCUUCGGGUGUGCUGGUUUCUUUGUUUUCCAGUCUGCUAACCCUCUUUCGUCCUGCCAGUACUGAUC [ABUW_1645 mRNA leader] |  | Kd [3]: 20 nM |
